The target in test [1] is beluga whale coronavirus (BwCoV) spike (S) glycoprotein ectodomain, 2P, GCN4 trimerization motif, Strep-tag (beluga whale coronavirus (BwCoV)). Kind of test: cryo-EM structure.
Test [2] addresses bottlenose dolphin coronavirus (BdCoV) spike (S) glycoprotein ectodomain (23-1370), 2P, GCN4 trimeri (bottlenose dolphin coronavirus (BdCoV)). Kind of test: cryo-EM structure.

As a reminder, the stoichiometry N is a count of units in the complex or per binding partner. Take “beluga whale coronavirus (BwCoV) spike (S) glycoprotein ectodomain, 2P, GCN4 trimerization motif, Strep-tag (domain or fragment)”: the stoichiometry N in test [1] came out at 3. With “bottlenose dolphin coronavirus (BdCoV) spike (S) glycoprotein ectodomain (23-1370), 2P, GCN4 trimeri (domain or fragment)”, in test [2], the stoichiometry N amounted to 3.

The record behind these values is publication PMC13061240.
